Test results: paper PMC9712689 (Communications Biology, 2022)

B1: PA2854 (natural protein)
chain: LELQLPPPGEDVVGQVQVIKAKYEDTFADLGEQYNLGYSEMVAANPGVDPWLPGVGTEVIIPTRFVLPPGPREGVVINLAEYRLYYYPKGQNVVHTYPLGIGREGWGSPIANTRITAKTKDPAWYPPASIRAEHAADGDPLPTVVPPGPDNPLGPYKLTLGVPGYLIHGSNKKFGIGTRTSHGCFRMYNADVTHLFSMISVGTSVRIINEPYKFGVSNGKVYLEAHTPLNDHGDPSVVDKHTAVINTLLKRDDLAKRIQLNWDVVREVVASEDGVPVEIAQESAPAMTATVDSDPTQLTP
notes: source: E. coli, purified (Ni-NTA or Strep-Tactin)
B2: RlpA-Δ81 (domain or fragment)
chain: YTVLGKTYYPMNDARAYRMVGTASWYGTKFHGQATANGETYDLYGMTAAHKTLPLPSYVRVTNLDNGKSVIVRVNDRGPFYSDRVIDLSFAAAKKLGYAETGTARVKVEGIDPVQWWAQRGRPAPMVLAQPKQAVAQAAPAAAQTQAVAMAQPIETYTPPPAQHAAAVLPVQIDSKKNASLPADGLYLQVGAFANPDAAELLKAKLSGVTAAPVFISSVVRNQQILHRVRLGPIGSADEVSRTQDSIRVANLGQPTLVRPD
notes: source: E. coli BL21-star (DE3), purified (Ni-NTA)
B3: RlpA-Δ32·MltF2 complex (MST) (complex)
chain 1: PQQPARQAGISGPGDYSRPHRDGAPWWDVDVSRIPDAVPMPHNGSVKANPYTVLGKTYYPMNDARAYRMVGTASWYGTKFHGQATANGETYDLYGMTAAHKTLPLPSYVRVTNLDNGKSVIVRVNDRGPFYSDRVIDLSFAAAKKLGYAETGTARVKVEGIDPVQWWAQRGRPAPMVLAQPKQAVAQAAPAAAQTQAVAMAQPIETYTPPPAQHAAAVLPVQIDSKKNASLPADGLYLQVGAFANPDAAELLKAKLSGVTAAPVFISSVVRNQQILHRVRLGPIGSADEVSRTQDSIRVANLGQPTLVRPD
chain 2: RITGQPDNWHREQPETRDLASIRRAGVLKVLVNQSRNSSGEVKGEPIGVEYRRLRAFEQYLNSRSPSARNLTLKLIPKPKDQLLAALQRGEGDLVAPGELLPAHDGLQVSPSAPVRADVPLVLVARKGNRRYTRLEQLSGRTIPLPAGSAAEGAIELVNQRLAQRRMAPIRIEKLDASLAVEDVMEMVQAGILGFTVVEQPIAERWAKVLPKLRVDRHLVLDNRADMAWYVRRDASTLRATIDRFLADYRAPADQDVAFQRVYRRAYKVRNPLGAADRKRLEAVRPLLQRYARQSSMDWLALAAVAYKESHLNPKARGSGGASGLMQITPAAARSVGVGNVHDKDSNVLAASRYLTKIRKQFFSSKHLDERERLAFTLAAYNMGPERVQNLRTQARRRGLDPNRWFFQVERVAAEEIGMGVVSYVSSVNKYYLAYERERVRLEPGVRAKTATAQK
modifications: amine reactive RED-NHS dye
B4: PA4063 (natural protein)
chain: HDDHDHDHAHGSLGKHEHGVAQLNVALDGKTLELELDSPAMNLVGFEHAASTDADKAAVAKARAQLEKPLELFALPVTAGCSVASQELRSPLFGDKAPAHAHKEKAGHEHEHEHEHEHGHADIHAHYQLSCEKPELLKLLTLAEFFKRFPATQKIQVQLIGPDGQKGADLAPASAELKL
notes: as for B1
B5: PilO (natural protein)
chain: YNFHLSDMQAQLEQQAAEEETLKQQFSTKAFQAANLEAYKAQMKEMEESFGALLRQLPSDTEVPGLLEDITRTGLGSGLEFEEIKLLPEVAQQFYIELPIQISVVGGYHDLATFVSGVSSLPRIVTLHDFEIKPVAPGSTSKLRMSILAKTYRYNDKGLKK
notes: as for B1

How the values were obtained:
Settings in all cases: both partners purified
[1] = biological target: B3; assay: MST
[2] = biological target: T1, RlpA-Δ32, fluorescently labeled (P. aeruginosa PAO1, UniProt Q9X6V6 32-342, amine reactive RED-NHS dye); assay: MST
T1 construct: source: E. coli BL21-star (DE3), purified (Ni-NTA), labelled with RED-NHS dye
T1 sequence: B3 chain 1

[3] = biological target: T2, RlpA-Δ32 (P. aeruginosa PAO1, UniProt Q9X6V6 32-342); assay: SPR
T2 construct: source: E. coli BL21-star (DE3), purified (Ni-NTA)
T2 sequence: B3 chain 1

[4] = biological target: B1; assay: SPR
[5] = biological target: T3, MltD (P. aeruginosa PAO1, UniProt Q9I2T2 1-534); assay: SPR
T3 sequence (looked up): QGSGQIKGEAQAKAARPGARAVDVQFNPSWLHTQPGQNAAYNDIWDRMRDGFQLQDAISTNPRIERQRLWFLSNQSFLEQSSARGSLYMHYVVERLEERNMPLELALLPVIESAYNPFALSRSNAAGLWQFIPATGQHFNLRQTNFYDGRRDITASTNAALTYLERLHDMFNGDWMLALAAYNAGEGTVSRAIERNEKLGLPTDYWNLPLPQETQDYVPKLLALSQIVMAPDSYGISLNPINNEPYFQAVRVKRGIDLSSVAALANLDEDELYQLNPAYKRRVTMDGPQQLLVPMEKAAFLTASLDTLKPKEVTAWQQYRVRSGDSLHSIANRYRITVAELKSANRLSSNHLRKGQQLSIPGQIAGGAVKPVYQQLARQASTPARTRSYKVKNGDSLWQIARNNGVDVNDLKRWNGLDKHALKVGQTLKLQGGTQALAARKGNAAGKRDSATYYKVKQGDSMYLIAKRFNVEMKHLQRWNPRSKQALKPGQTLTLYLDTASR

[6] = biological target: T4, MltF2 (P. aeruginosa PAO1, UniProt Q9HZY1 1-476); assay: SPR
T4 sequence (looked up): B3 chain 2

[7] = biological target: T5, PBP1a (P. aeruginosa PAO1, UniProt Q07806 27-822); assay: SPR
T5 sequence (Q07806 27-822): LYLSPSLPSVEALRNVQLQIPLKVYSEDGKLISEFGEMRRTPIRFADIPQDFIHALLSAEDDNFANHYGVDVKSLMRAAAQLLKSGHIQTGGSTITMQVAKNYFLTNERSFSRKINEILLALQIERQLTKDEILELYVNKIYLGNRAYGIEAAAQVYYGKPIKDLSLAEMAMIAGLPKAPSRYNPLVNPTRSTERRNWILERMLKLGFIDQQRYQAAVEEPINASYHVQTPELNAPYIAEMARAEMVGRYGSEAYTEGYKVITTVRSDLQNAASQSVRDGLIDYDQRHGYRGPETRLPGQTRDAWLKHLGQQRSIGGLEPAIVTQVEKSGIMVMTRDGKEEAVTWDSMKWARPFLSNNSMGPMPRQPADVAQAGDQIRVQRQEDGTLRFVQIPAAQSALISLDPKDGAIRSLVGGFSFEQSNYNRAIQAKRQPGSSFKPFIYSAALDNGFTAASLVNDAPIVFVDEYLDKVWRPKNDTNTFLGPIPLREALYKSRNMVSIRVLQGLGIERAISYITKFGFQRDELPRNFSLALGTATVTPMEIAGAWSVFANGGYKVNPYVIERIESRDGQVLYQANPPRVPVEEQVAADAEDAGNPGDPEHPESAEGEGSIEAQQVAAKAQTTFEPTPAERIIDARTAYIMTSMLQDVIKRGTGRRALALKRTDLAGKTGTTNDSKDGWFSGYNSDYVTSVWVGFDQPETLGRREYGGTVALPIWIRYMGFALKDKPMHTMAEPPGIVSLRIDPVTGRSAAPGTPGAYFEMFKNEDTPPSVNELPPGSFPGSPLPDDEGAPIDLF

[8] = biological target: T6, TypA (P. aeruginosa PAO1, UniProt Q9HU67 1-605); assay: SPR
T6 sequence (looked up): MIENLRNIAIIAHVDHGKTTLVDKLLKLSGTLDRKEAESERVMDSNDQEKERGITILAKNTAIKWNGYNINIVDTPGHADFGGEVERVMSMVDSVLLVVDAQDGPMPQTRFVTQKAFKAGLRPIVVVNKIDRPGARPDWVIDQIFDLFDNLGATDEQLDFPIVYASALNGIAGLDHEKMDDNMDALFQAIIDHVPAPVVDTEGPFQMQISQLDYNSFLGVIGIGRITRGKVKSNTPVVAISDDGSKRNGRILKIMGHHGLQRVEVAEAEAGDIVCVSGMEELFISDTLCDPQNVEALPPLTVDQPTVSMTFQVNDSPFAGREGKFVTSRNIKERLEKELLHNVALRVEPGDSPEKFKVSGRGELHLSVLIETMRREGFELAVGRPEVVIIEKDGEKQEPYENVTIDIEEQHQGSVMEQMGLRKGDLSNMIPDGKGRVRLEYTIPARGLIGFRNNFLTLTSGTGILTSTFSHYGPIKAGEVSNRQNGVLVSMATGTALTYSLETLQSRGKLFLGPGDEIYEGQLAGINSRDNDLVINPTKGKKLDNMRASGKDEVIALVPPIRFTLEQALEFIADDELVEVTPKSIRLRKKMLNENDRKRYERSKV

[9] = biological target: T5, PBP1a; assay: MST
[10] = biological target: B2; assay: SPR

Binder | Kd [1] [nM] | Kd [2] [nM] | Kd [3] [nM] | koff [3] [s⁻¹] | kon [3] [M⁻¹ s⁻¹] | Kd [10] [nM] | koff [10] [s⁻¹] | kon [10] [M⁻¹ s⁻¹] | also measured
B1 | 55 | 58 | 65 | 0.00032 | 4900 | – | – | – | –
B2 | – | – | – | – | – | – | – | – | Kd [4]: 2270 nM; koff [4]: 0.00075 s⁻¹; kon [4]: 330 M⁻¹ s⁻¹; Kd [5]: 56 nM; koff [5]: 0.0039 s⁻¹; kon [5]: 69000 M⁻¹ s⁻¹; Kd [6]: 3 nM; koff [6]: 4e-05 s⁻¹; kon [6]: 14900 M⁻¹ s⁻¹; Kd [7]: 94 nM; koff [7]: 0.00177 s⁻¹; kon [7]: 18800 M⁻¹ s⁻¹; Kd [8]: 74 nM; koff [8]: 0.00047 s⁻¹; kon [8]: 6400 M⁻¹ s⁻¹
B3 | – | – | – | – | – | – | – | – | Kd [9]: 45 nM
B4 | 105 | 201 | 810 | 0.00145 | 1800 | 1080 | 0.00194 | 1800 | –
B5 | 208 | 350 | 3130 | 0.00275 | 880 | 1010 | 0.00076 | 750 | –
